Laboratory results published in US20250250357A1 (NANJING ZAIMING PHARMACEUTICAL, published 2025).
Numbering of substitutions follows the chain as printed.

T1: monkey MSLN full-length protein (NCBI: XP_028696439.1) expressed on HEK293T-monkey MSLN cells (monkey)
T1 construct: Whole encoded precursor
T1 chain: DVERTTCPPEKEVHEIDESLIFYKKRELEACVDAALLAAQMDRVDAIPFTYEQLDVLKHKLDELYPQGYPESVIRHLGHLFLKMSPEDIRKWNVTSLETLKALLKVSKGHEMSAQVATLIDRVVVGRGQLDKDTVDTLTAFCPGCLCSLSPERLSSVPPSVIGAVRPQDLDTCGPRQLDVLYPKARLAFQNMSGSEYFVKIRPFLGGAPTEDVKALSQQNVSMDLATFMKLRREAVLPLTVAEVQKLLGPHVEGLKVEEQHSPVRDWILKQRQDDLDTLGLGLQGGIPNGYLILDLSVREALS

B1: S009-F2.13.3 (antibody, human IgG1, kappa, V domains shown)
VH: QVQLQQSGAELMKPGASVKLSCKATGYTFTGYWIEWVKQRPGHGLEWIGEILPGSGSTNYNEKFKGKATFTADTSSNTAYMQLSSLTTEDSAIYYCARAGAWFAYWGQGTLVTVSA
VL: QIVLTQSPAIMSASLGERVTMTCTASSSVSSSYLHWYQQKPGSSPKLWTYSTSNLASGVPARFSGSGSGTSYSLTISSMEAEDAATYYCHQYHRSPWTFGGGTKLEIKR
notes: human-murine chimeric antibody, human IgG1/kappa constant regions
B2: S009-F1.56.1 (antibody, human IgG1, kappa, V domains shown)
VH: EVQLQQSGAEVVKPGASVKLSCTASGFNIRHTYMHWVKQRPEQGLEWIGRIDPANGNTEYDPKFQGKATITADTSSNTAYLQLSSLTSEDTAVYYCARDGWYIDVWGAGTTVTVSS
VL: DIVMSQSPSSLAVSVGEKVTMSCKSSQSLLYSNNQKNYLAWYQQKPGQSPKLLIYWASTRESGVPDRFTGSGSGTDFTLTISSVKAEDLAVYYCQRYYSYPWTFGGGTKLEIKR
notes: as for B1
B3: S009-F1.35.24 (antibody, human IgG1, kappa, V domains shown)
VH: EVQLQQSEPELVKPGASVRISCKASGYSFTDYYMHWVKQSPENRLEWIGEINPSTGGTSYNPKFKDKATLTVDKSSSTAYMQLKSLTSEESAVYYCTRYHYYGSSSYVMDYWGQGTSVTVSS
VL: QIVLTQSPAILSASPGERVTMTCSASSSVYHMHWFQQKSGTSPKRWVYDTSKLASGVPARFSGSGSGTSYSLTISSMEAEDAATYYCQHWRTNPLTFGAGTKLELKR
notes: as for B1
B4: S009-F3.74.20 (antibody, human IgG1, kappa, V domains shown)
VH: RVQLQQSGAELVRPGASVTLSCKASGYTFTDSEMHWVKQTPVHGLEWIGAIDPEIDGTAYNQNFRDKAILTADKSSSTAYMELRSLTSEDSAVYYCTTYFGSGYGYFDVWGTGTTVTVSS
VL: DVVMTQTPLSLSVSLGDQASISCRSSQSLVYSNGNTYLHWFLQKPGQSPKLLIYKVSNRFSGVPDRFSGSGSGTDFTLKINRVEAEDLGVYFCSQSTHIPFTFGAGTKLELKR
notes: as for B1
B5: S009-F3.51.8 (antibody, human IgG1, kappa, V domains shown)
VH: QVQLQQSGAELVRPGASVTLSCKASGYTFTDYEMHWVKQTPVHGLEWIGGFDPETGGTAHNQKFKGKAILTADKSSSTAYMELRSLTSEDSAVYYCSNYGSIWGDCWGQGTSVTVSS
VL: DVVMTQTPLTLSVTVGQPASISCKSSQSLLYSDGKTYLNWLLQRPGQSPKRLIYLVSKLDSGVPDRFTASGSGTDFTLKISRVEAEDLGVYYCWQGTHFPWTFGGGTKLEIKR
notes: as for B1
B6: S009-F3.45.21 (antibody, human IgG1, kappa, V domains shown)
VH: DVQLQESGPGLVKPSQSLSLTCSVTGDSITSGYYWNWIRQFPGNKLEWMGFIRFDGTNNYNPSLKNRISITRDTSKNQFFLKLNSVTTEDTATYYCAREGSYAPAWFAYWGQGTLVTVSA
VL: QIVLTQSPAIMSASPGEKVTMTCSASSSLSYMYWYQQKPGSSPRLLIYDTSNLASGVPVRFSGSGSGTSYSLTISRMEAEDAATYYCQQWSSYPPTFGGGTKLEIKR
notes: as for B1
B7: S009-F3-63.5 (antibody, human IgG1, kappa, V domains shown)
VH: QVQLQQSGAELVRPGASVTLSCKASGYTFTDYEMHWVKQTPVHGLEWIGGIDPETGDTAYNQQFKGKAILTADRSSSTAYMELRSLTSEDSAVYYCTNYASSREDYWGQGTTLTVSS
VL: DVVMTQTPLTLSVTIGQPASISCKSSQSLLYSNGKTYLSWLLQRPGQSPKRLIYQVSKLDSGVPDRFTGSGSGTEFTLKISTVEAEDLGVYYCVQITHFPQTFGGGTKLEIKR
notes: as for B1
B8: S009-F3.38.10 (antibody, human IgG1, kappa, V domains shown)
VH: EVQLQQSGPVLVKPGASVKMSCEASGYIFTDYYMNWVKKSHGKSLEWIGVINPKNGVISHNQKFKGKATLTVDKSSNTAYMELSSLTSEDSAVYYCANYGSRFYAMDYWGQGTSVTVSS
VL: DVVMTQTPLSLPVSLGDQASISCRSSQSLIHSDGNTYLQWYLQKSGQSPKLLIYKVSNRFSGVPDRFSGSGSGTDFTLKISRVETEDLGVYFCSQTTHVPFTFGSGTKLEIKR
notes: as for B1
B9: S009-F3.80.22 (antibody, human IgG1, kappa, V domains shown)
VH: QVQLQQSGAELVRPGASVTLSCKASGYTFTDYEIHWVKQTPVHGLEWIGAFDPEIGGSAYNQKFKDRATLTADKSSSTAYMELHSLTAEDSAVYYCTDYYGSSSGYFDVWGTGTTVTVSS
VL: B8 VL with I30E, S32N, D33N, Q39H, Y41F, Q43H, S45P, T85A, T96S
notes: as for B1
B10: Tab106 (YP218, hIgG1) (antibody, V domains shown)
VH: QQQLEESGGGLVKPEGSLTLTCKASGFDLGFYFYACWVRQAPGKGLEWIACIYTAGSGSTYYASWAKGRFTISKASSTTVTLQMTSLAAADTATYFCARSTANTRSTYYLNLWGPGTLVTVSS
VL: DVVMTQTPASVSEPVGGTVTIKCQASQRISSYLSWYQQKPGQRPKLLIFGASTLASGVPSRFKGSGSGTEYTLTISDLECADAATYYCQSYAYFDSNNWHAFGGGTEVVVRT
notes: Control antibody; also called YP218 human IgG1 antibody

target: T2, human MSLN-FL-his protein (human, UniProt Q13421 296-580); assay: competitive ELISA; row F2.16.10; further: test concentration or dose not given here
T2 construct: made in HEK293E cells, purified on nickel column; also called hMSLN-FL-his; human MSLN full-length protein; not shown: His tag
T2 sequence (Q13421 other isoform, or with tags, fused parts or gaps): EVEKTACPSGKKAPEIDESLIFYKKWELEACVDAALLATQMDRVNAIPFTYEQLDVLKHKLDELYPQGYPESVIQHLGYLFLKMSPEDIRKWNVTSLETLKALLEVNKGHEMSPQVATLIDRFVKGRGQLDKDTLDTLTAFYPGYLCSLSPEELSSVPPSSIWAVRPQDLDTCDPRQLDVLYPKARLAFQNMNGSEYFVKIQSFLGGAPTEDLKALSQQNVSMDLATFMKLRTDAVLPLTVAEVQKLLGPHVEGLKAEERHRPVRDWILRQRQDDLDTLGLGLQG

competition rate [%]	Binder
-41	B1
-7	B2
31	B3

target: T3, human MSLN protein endogenously expressed on OVCAR3 tumor cells (human, UniProt Q13421 296-598); assay: FACS on OVCAR3 cells
T3 construct: whole, on cells; Endogenous target on OVCAR3 cells; kept apart from the recombinant full-length construct; also called mesothelin
T3 sequence (Q13421 other isoform, or with tags, fused parts or gaps): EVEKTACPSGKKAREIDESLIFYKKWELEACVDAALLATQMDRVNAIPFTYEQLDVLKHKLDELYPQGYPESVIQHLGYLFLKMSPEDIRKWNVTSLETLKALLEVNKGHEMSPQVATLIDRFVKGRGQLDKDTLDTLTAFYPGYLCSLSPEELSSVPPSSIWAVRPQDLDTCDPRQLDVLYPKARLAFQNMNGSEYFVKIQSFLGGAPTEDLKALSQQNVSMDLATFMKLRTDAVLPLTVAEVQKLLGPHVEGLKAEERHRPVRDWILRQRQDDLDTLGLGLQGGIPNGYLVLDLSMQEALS
Experimental: (§1) The desired cells were expanded to the logarithmic growth phase in a T-75 cell culture flask. […] After the cells from the previous step were subjected to cell counting, the cell pellet was resuspended to 2×10⁶ cells/mL in a blocking buffer of [PBS+2% (w/w) BSA] and added into a 96-well FACS reaction plate at 50 μL/well. A chimeric antibody (a sample to be tested) was added at 50 μL/well, and the plate was incubated on ice for 2 h. […] After the plate was centrifuged and washed 5 times with a PBST buffer, assay and analysis were performed by FACS (FACS CantoII, purchased from BD). Data analysis was performed by software (Flowjo) to obtain the mean fluorescence intensity (MFI) of the cells.

Maximum mean fluorescence intensity	EC50 [nM]	Binder
613		B4
337		B5
9710	5.61	B6
227		B7
2620		B8
263		B9

target: T2, human MSLN-FL-his protein; assay: SPR (Biacore), antibody captured on Protein A chip;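 further: measured at 25 °C, analyte injected 240 s in five twofold dilutions from 200 nM, dissociation up to 600 s, double-referenced, fitted with Langmuir 1:1 model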
Experimental: The flow cell was set at 25° C. The sample block was set at 16° C. Both were pretreated with the running buffer. In each cycle, first, the antibody to be tested was captured using the Protein A chip, and then a single concentration of human MSLN-FL-his protein was injected. […] The association was determined by injecting different concentrations of human MSLN-FL-his in solution for 240 s on end, wherein the flow rate was 30 μL/min, and the protein was diluted in a 1:1 dilution ratio from 200 nM (see detailed results for actual concentrations tested) to obtain 5 concentrations in total. The dissociation phase was monitored for up to 600 s and triggered by switching from the sample solution to the running buffer. The surface was regenerated by washing with 10 mM glycine solution (pH 1.5) at a flow rate of 30 μL/min for 30 s. The difference in bulk refractive index was corrected by subtracting the responses obtained from the goat anti-human Fc surface. Blank injections were also subtracted (=double reference). To calculate the apparent KD and other kinetic parameters, the Langmuir 1:1 model was used.

Kd [nM]	koff [s⁻¹]	kon [M⁻¹ s⁻¹]	Binder
8.65	0.00189	219000	B1
0.889	0.00071	799000	B2
0.914	8.51e-05	93100	B3

target: T2, human MSLN-FL-his protein; assay: competitive ELISA; row Tab142 (R1); further: test concentration or dose not given here

competition rate [%]	Binder
-33	B1
9	B2
49	B3

target: T2, human MSLN-FL-his protein; assay: competitive ELISA; row F1.56.1; further: test concentration or dose not given here

competition rate [%]	Binder
-426	B1
104	B2
97	B3

Target: T1, monkey MSLN full-length protein (NCBI: …)
Assay: FACS on HEK293T-monkey MSLN cells
Experimental: as §1

Maximum mean fluorescence intensity	binding result	EC50 [nM]	Binder
188			B4
88	no binding		B5
41100		0.56	B6
105	no binding		B7
22300		4.63	B8
57	no binding		B9

target: T2, human MSLN-FL-his protein; assay: competitive ELISA; row Tab107 (conformation); further: test concentration or dose not given here

competition rate [%]	Binder
-54	B1
-35	B2
36	B3

target: T2, human MSLN-FL-his protein; assay: competitive ELISA; row F2.39.3; further: test concentration or dose not given here

competition rate [%]	Binder
13	B1
69	B2
67	B3

target: T4, human MSLN-R3 protein (Met487-Ser606 of NCBI AAH09272.1) expressed on HEK293T-hMSLN-R3 cells (human, UniProt Q13421 487-606); assay: FACS on HEK293T-hMSLN-R3 cells
T4 construct: also called Region3
T4 sequence (Q13421 495-614): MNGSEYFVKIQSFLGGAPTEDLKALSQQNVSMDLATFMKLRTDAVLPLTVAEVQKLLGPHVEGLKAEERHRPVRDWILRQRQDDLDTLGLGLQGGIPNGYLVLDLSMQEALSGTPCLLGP
Experimental: as §1

EC50 [nM]	Maximum mean fluorescence intensity	Binder
0.65	7460	B10

target: T2, human MSLN-FL-his protein; assay: competitive ELISA; row F1.35.24; further: test concentration or dose not given here

competition rate [%]	Binder
7	B1
79	B2
100	B3

target: T2, human MSLN-FL-his protein; assay: competitive ELISA; row Tab108 (R3); further: test concentration or dose not given here

competition rate [%]	Binder
-105	B1
-36	B2
62	B3

target: T4, human MSLN-R3 protein (Met487-Ser606 of …); assay: FACS on HEK293T-hMSLN-R3 cells; remark: another data set of the same source
Experimental: as §1

EC50 [nM]	Maximum mean fluorescence intensity	Binder
0.28	25400	B10

target: T4, human MSLN-R3 protein (Met487-Ser606 of …); assay: FACS on HEK293T-hMSLN-R3 cells; remark: another data set of the same source
Experimental: as §1

EC50 [nM]	Maximum mean fluorescence intensity	binding result	Binder
0.62	5070		B4
0.75	4470		B5
	81	no binding	B6
1.18	8270		B7
3.41	6770		B8
0.99	4800		B9

target: T2, human MSLN-FL-his protein; assay: competitive ELISA; row F2.58.8; further: test concentration or dose not given here

competition rate [%]	Binder
-86	B1
107	B2
100	B3

target: T5, human MSLN full-length protein (NCBI: AAH09272.1) expressed on HEK293T-hMSLN-B8 cells (human, UniProt Q13421 296-598); assay: FACS on HEK293T-hMSLN-B8 cells
T5 construct: Whole encoded precursor
T5 sequence (Q13421 other isoform, or with tags, fused parts or gaps limits assumed): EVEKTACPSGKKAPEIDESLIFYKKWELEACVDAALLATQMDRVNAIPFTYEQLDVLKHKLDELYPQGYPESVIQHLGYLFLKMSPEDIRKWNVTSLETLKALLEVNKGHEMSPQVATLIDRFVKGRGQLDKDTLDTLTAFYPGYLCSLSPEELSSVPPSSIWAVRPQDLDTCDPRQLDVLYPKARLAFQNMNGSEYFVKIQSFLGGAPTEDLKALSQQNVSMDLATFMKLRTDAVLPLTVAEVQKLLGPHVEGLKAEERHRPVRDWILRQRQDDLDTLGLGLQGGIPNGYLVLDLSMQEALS
Experimental: as §1

EC50 [nM]	Maximum mean fluorescence intensity	Binder
8.68	36400	B4
21.8	27900	B5
1.41	97600	B6
	35400	B7
6.84	80600	B8
36.4	24700	B9

target: T2, human MSLN-FL-his protein; assay: competitive ELISA; row F2.24.10; further: test concentration or dose not given here

competition rate [%]	Binder
-65	B1
-39	B2
13	B3

target: T2, human MSLN-FL-his protein; assay: competitive ELISA; row F2.17.3
Experimental: In order to identify antigen-binding sites of antibodies, MSLN chimeric antibodies were grouped using competitive ELISA.
The chimeric antibodies were diluted to 2 μg/mL with PBS and allowed to coat 96-well high-adsorption ELISA plates at 50 μL/well. After the plates were coated at 4° C. overnight, 250 μL of a blocking buffer (PBS containing 2% (w/w) BSA) was added for two hours of blocking at room temperature. 40 μg/mL of the antibodies to be tested were added, and then the human MSLN-FL-His protein with an EC₈₀ concentration corresponding to each of the antibodies to be tested was added for incubation for 2 h. The plates were washed 5 times with PBS, an HRP-labeled anti-His secondary antibody (purchased from Genescript, Cat. No. A00612) was then added for incubation for 1 h, and the plates were washed 5 times again. A TMB substrate was added at 50 μL/well, and after 10 minutes of incubation at room temperature, a stop solution (1.0 M HCl) was added at 50 μL/well. OD₄₅₀ nm values were read using an ELISA plate reader (Insight, purchased from PerkinElmer), and the competition rate between the antibodies was calculated according to the OD₄₅₀ nm values using a formula.

competition rate [%]	Binder
-11	B1
-6	B2
59	B3

target: T2, human MSLN-FL-his protein; assay: competitive ELISA; row F2.13.3; further: test concentration or dose not given here

competition rate [%]	Binder
84	B1
-588	B2
29	B3

target: T2, human MSLN-FL-his protein; assay: competitive ELISA; row F1.2.12; further: test concentration or dose not given here

competition rate [%]	Binder
23	B1
75	B2
-15	B3
